In paper PMC6675892, “Hepatitis B Virus X Protein Function Requires Zinc Binding” (Journal of Virology, 2019):

Key:
[1] = biological target: His-HBx coexpressed with GST-DDB1 (hepatitis B virus (genotype D)) (UniProt P03165); assay: AlphaScreen or HTRF; TR-FRET competition; 3 nM coexpressed His-HBx:GST-DDB1 complex preincubated with increasing untagged competitor 1 h at room temperature; Eu-cryptate anti-His and d2 anti-GST antibodies; 20 mM HEPES pH 7.2, 50 mM NaCl, 0.1 mg/ml BSA, 0.01% Brij-35, 0.5 mM TCEP
[2] = biological target: His-HBx expressed alone (detergent solubilized) (hepatitis B virus (genotype D)) (UniProt P03165); assay: AlphaScreen or HTRF; TR-FRET competition; 5 nM His-HBx and 5 nM GST-DDB1 expressed separately, preincubated with increasing untagged competitor 30 min at room temperature; Eu-cryptate anti-His and d2 anti-GST antibodies; 25 mM HEPES pH 7.2, 400 mM NaCl, 0.1 mg/ml BSA, 0.01% Brij-35, 0.5 mM TCEP
GST-DDB1 [3] = biological target: GST-DDB1 (UniProt Q16531); assay: AlphaScreen or HTRF; TR-FRET competition; 3 nM coexpressed His-HBx:GST-DDB1 complex preincubated with increasing untagged competitor 1 h at room temperature; Eu-cryptate anti-His and d2 anti-GST antibodies; 20 mM HEPES pH 7.2, 50 mM NaCl, 0.1 mg/ml BSA, 0.01% Brij-35, 0.5 mM TCEP
DDB1 = DDB1 (UniProt Q16531); assay: AUC; sedimentation velocity at 20 C, absorbance at 280 nm, c(s) distribution (SEDFIT), each protein in its final storage buffer
GST-DDB1 [4] = biological target: GST-DDB1 (UniProt Q16531); assay: AlphaScreen or HTRF; TR-FRET competition; 5 nM His-HBx and 5 nM GST-DDB1 expressed separately, preincubated with increasing untagged competitor 30 min at room temperature; Eu-cryptate anti-His and d2 anti-GST antibodies; 25 mM HEPES pH 7.2, 400 mM NaCl, 0.1 mg/ml BSA, 0.01% Brij-35, 0.5 mM TCEP
GST-DDB1 [5] = biological target: T1, GST-DDB1 (UniProt Q16531 1-1140); assay: AlphaScreen or HTRF; TR-FRET competition; 3 nM coexpressed His-HBx:GST-DDB1 complex preincubated with increasing untagged competitor 1 h at room temperature; Eu-cryptate anti-His and d2 anti-GST antibodies; 20 mM HEPES pH 7.2, 50 mM NaCl, 0.1 mg/ml BSA, 0.01% Brij-35, 0.5 mM TCEP; settings: both partners purified
T1 construct: also called glutathione S-transferase (GST)-DDB1; not shown: GST, N-terminal, kept

GST-DDB1 [6] = biological target: T1, GST-DDB1; assay: AlphaScreen or HTRF; TR-FRET competition; 5 nM His-HBx and 5 nM GST-DDB1 expressed separately, preincubated with increasing untagged competitor 30 min at room temperature; Eu-cryptate anti-His and d2 anti-GST antibodies; 25 mM HEPES pH 7.2, 400 mM NaCl, 0.1 mg/ml BSA, 0.01% Brij-35, 0.5 mM TCEP; settings: both partners purified

DDB1 (from UniProt Q16531 1-1140) (natural protein)
IC50 [1]: 16 nM | IC50 [2]: 204 nM

HBx H-box peptide (R96E mutant) (from UniProt P03165 88-102) (peptide; other documents disagree on this pair)
IC50 (GST-DDB1 [3]): > 100000 nM

HBx coexpressed with DDB1 (HBx:DDB1 coexpressed complex) (from UniProt P03165 1-154) (natural protein)
stoichiometry N (DDB1): 1

recombinant untagged HBx (from UniProt P03165 1-154) (natural protein)
IC50 (GST-DDB1 [3]): 9 nM | IC50 (GST-DDB1 [4]): 61 nM

ILPKVLHKRTLGLSA [HBx H-box peptide (wild type)]
IC50 (GST-DDB1 [5]): 1560 nM | IC50 (GST-DDB1 [6]): 5000 nM

B1: SV5-V (natural protein)
chain: MDPTDLSFSPDEINKLIETGLNTVEYFTSQQVTGTSSLGKNTIPPGVTGLLTNAAEAKIQESTNHQKGSVGGGAKPKKPRPKIAIVPADDKTVPGKPIPNPLLGLDSTPSTQTVLDLSGKTLPSGSYKGVKLAKFGKENLMTRFIEEPRENPIATSSPIDFKRGRDTGGFHRREYSIGWVGDEVKVTEWCNPSCSPITAAARRFECTCHQCPVTCSECERDT
notes: also called V protein of paramyxovirus SV5; source: E. coli Rosetta, purified (glutathione agarose, thrombin cleavage, MonoQ, Superdex 75); not shown: GST, N-terminal, cleaved
IC50 (GST-DDB1 [5]): 4 nM | IC50 (GST-DDB1 [6]): 7 nM
